Experimental data taken from the supplement of paper PMC9732359.
± gives the uncertainty stated by the source.

Assay: protein stability index of a GFP-peptide fusion (yeast GPS) (PSI 1-4); higher = more stable; sorted into four equal gates, so the index is relative within each strain
In short: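 Yeast carrying a pooled library were grown to mid-log phase in leucine-free medium. Each library plasmid expresses Cherry and has a tiled 17-residue yeast protein peptide fused downstream of GFP. Cells were sorted into four equal gates by GFP/Cherry ratio, and plasmids from each gate were PCR-amplified, Illumina-sequenced and assigned to strains by barcode. Summing, across gates, the read frequency times the gate number gave each peptide's protein stability index.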

EKSGISKMSDESFAELM [RPC17]
protein stability index (doa10∆): 3.26 ± 0.14
protein stability index (san1∆): 3.27 ± 0.11
protein stability index (ubr1∆): 3.42 ± 0.2

TLKDYQIKGLQWMVSLF [SNF2]
protein stability index (doa10∆): 3.01 ± 0.1
protein stability index (pdr5∆): 2.54 ± 0.11
protein stability index (san1∆): 3.22 ± 0.078
protein stability index (ubr1∆): 2.76 ± 0.1

NLLLRELNVEKLNTFNL [SRP72]
protein stability index (doa10∆): 2.71 ± 0.15
protein stability index (pdr5∆): 3.41 ± 0.2
protein stability index (san1∆): 2.95 ± 0.099
protein stability index (ubr1∆): 2.95 ± 0.13

EEDVYLDPLARVSKDKK [FAS2]
protein stability index (doa10∆): 3.5 ± 0.11
protein stability index (pdr5∆): 3.29 ± 0.11
protein stability index (san1∆): 3.46 ± 0.069
protein stability index (ubr1∆): 3.47 ± 0.061

NKIRNLELPLCPYCYKK [SIR2]
protein stability index (doa10∆): 2.52 ± 0.055
protein stability index (pdr5∆): 1.95 ± 0.062
protein stability index (san1∆): 1.97 ± 0.069
protein stability index (ubr1∆): 1.98 ± 0.074

QIFVRGSQIKFIVVPDL [SMD3]
protein stability index (doa10∆): 1.8 ± 0.071
protein stability index (pdr5∆): 2.35 ± 0.06
protein stability index (san1∆): 2.05 ± 0.064
protein stability index (ubr1∆): 2.02 ± 0.066

KLWAEIIVKILYYRPHI [GRR1]
protein stability index (doa10∆): 1.4 ± 0.064
protein stability index (pdr5∆): 2.02 ± 0.071
protein stability index (san1∆): 1.19 ± 0.15
protein stability index (ubr1∆): 1.46 ± 0.073

ITIDSVVDANGCVNSLI [YMR129W/POM152]
protein stability index (doa10∆): 3.01 ± 0.11
protein stability index (pdr5∆): 2.91 ± 0.09
protein stability index (san1∆): 3.05 ± 0.055
protein stability index (ubr1∆): 2.8 ± 0.06

QQVEGKLSQMILDKIFY [RPN6]
protein stability index (doa10∆): 2.81 ± 0.074
protein stability index (pdr5∆): 2.84 ± 0.081
protein stability index (san1∆): 3.01 ± 0.096
protein stability index (ubr1∆): 2.94 ± 0.062

LERVKANAAKRAEAKAQ [RPL21A]
protein stability index (doa10∆): 3.14 ± 0.097
protein stability index (pdr5∆): 3.25 ± 0.12
protein stability index (san1∆): 3.36 ± 0.061
protein stability index (ubr1∆): 3.14 ± 0.11

NVKELWTEKKGKNVINR [SMD2]
protein stability index (doa10∆): 3.46 ± 0.22
protein stability index (san1∆): 3.54 ± 0.18
protein stability index (ubr1∆): 3.6 ± 0.11

EKPFNENRFQDTLLLLP [POP4]
protein stability index (doa10∆): 1.52 ± 0.11
protein stability index (pdr5∆): 2.58 ± 0.076
protein stability index (san1∆): 1.52 ± 0.14
protein stability index (ubr1∆): 2.72 ± 0.1

HSFAVLLHERKLLNDLA [NUT1]
protein stability index (doa10∆): 2.68 ± 0.049
protein stability index (pdr5∆): 2.49 ± 0.057
protein stability index (san1∆): 2.46 ± 0.086
protein stability index (ubr1∆): 2.71 ± 0.036

IRNLTVFTMKELAQYMK [RGR1]
protein stability index (doa10∆): 3.04 ± 0.24
protein stability index (pdr5∆): 2.78 ± 0.22
protein stability index (san1∆): 2.71 ± 0.2
protein stability index (ubr1∆): 2.79 ± 0.08

VTDLSGKETIARVTGGM [RPS14B]
protein stability index (doa10∆): 3.03 ± 0.087
protein stability index (pdr5∆): 3.09 ± 0.081
protein stability index (san1∆): 2.79 ± 0.055
protein stability index (ubr1∆): 2.9 ± 0.061

KEAFEEEIKQSARNYDK [SMC1]
protein stability index (doa10∆): 3.21 ± 0.078
protein stability index (pdr5∆): 3.09 ± 0.082
protein stability index (san1∆): 3.06 ± 0.051
protein stability index (ubr1∆): 3.31 ± 0.056

LTSPAFGPHVDVNDVLT [GRR1]
protein stability index (doa10∆): 3.4 ± 0.085
protein stability index (pdr5∆): 3.23 ± 0.062
protein stability index (san1∆): 3.35 ± 0.063
protein stability index (ubr1∆): 3.27 ± 0.056

LLIDQFSPVISQSLTSI [SWI1]
protein stability index (doa10∆): 1.64 ± 0.074
protein stability index (pdr5∆): 1.99 ± 0.067
protein stability index (san1∆): 1.64 ± 0.11
protein stability index (ubr1∆): 1.66 ± 0.064

TTIFVKSTTPYVSALKR [POP7]
protein stability index (doa10∆): 1.82 ± 0.07
protein stability index (pdr5∆): 2.27 ± 0.077
protein stability index (san1∆): 2.27 ± 0.076
protein stability index (ubr1∆): 1.97 ± 0.056

AVFYTPKELGGLGMISA [PRP8]
protein stability index (doa10∆): 3.43 ± 0.13
protein stability index (pdr5∆): 2.33 ± 0.13
protein stability index (san1∆): 2.4 ± 0.1
protein stability index (ubr1∆): 2.29 ± 0.24

YDLNFKLRETLVKIDDL [SMC1]
protein stability index (doa10∆): 3.05 ± 0.15
protein stability index (pdr5∆): 3.13 ± 0.13
protein stability index (san1∆): 3.01 ± 0.13
protein stability index (ubr1∆): 2.68 ± 0.14

QLKHTKLALAENDTNMN [SMC4]
protein stability index (doa10∆): 3.13 ± 0.079
protein stability index (pdr5∆): 3.12 ± 0.097
protein stability index (san1∆): 3.25 ± 0.07
protein stability index (ubr1∆): 3.17 ± 0.048

IELKTDWVRFLALALGI [RPN1]
protein stability index (doa10∆): 1.38 ± 0.13
protein stability index (pdr5∆): 1.37 ± 0.077
protein stability index (san1∆): 1.41 ± 0.12
protein stability index (ubr1∆): 1.13 ± 0.067

LCQKSPVMADLNGGLQF [FAS2]
protein stability index (doa10∆): 2.79 ± 0.11
protein stability index (pdr5∆): 2.65 ± 0.17
protein stability index (san1∆): 2.94 ± 0.14
protein stability index (ubr1∆): 2.53 ± 0.2

NDPSAEVRRAAMLNLIN [YCG1]
protein stability index (pdr5∆): 3.42 ± 0.21
protein stability index (san1∆): 2.72 ± 0.26

ECADLWPRVASNSGVVV [RPL23A]
protein stability index (doa10∆): 2.9 ± 0.17
protein stability index (pdr5∆): 2.63 ± 0.1
protein stability index (san1∆): 3.06 ± 0.11
protein stability index (ubr1∆): 3.17 ± 0.062

RMHLAPASKQGYLITPP [SSN2]
protein stability index (doa10∆): 1.36 ± 0.25
protein stability index (pdr5∆): 1.45 ± 0.24
protein stability index (ubr1∆): 1.36 ± 0.13

NAQSKLSLTLNTHYHAD [SNF2]
protein stability index (doa10∆): 2.76 ± 0.096
protein stability index (pdr5∆): 2.81 ± 0.11
protein stability index (san1∆): 2.73 ± 0.13
protein stability index (ubr1∆): 3.09 ± 0.085

EHTDVIDELIDTKLRLE [YIL149C/MLP2]
protein stability index (doa10∆): 2.87 ± 0.052
protein stability index (pdr5∆): 3 ± 0.059
protein stability index (san1∆): 2.77 ± 0.039
protein stability index (ubr1∆): 2.7 ± 0.034

GANDLGFTASVSNQENA [MED1]
protein stability index (doa10∆): 3.06 ± 0.083
protein stability index (pdr5∆): 3.17 ± 0.11
protein stability index (san1∆): 2.93 ± 0.078
protein stability index (ubr1∆): 3.39 ± 0.11

MSLVVQEQGSFQHILRL [RPS18A]
protein stability index (doa10∆): 2.95 ± 0.14
protein stability index (pdr5∆): 2.83 ± 0.12
protein stability index (san1∆): 2.65 ± 0.1
protein stability index (ubr1∆): 2.92 ± 0.1

NHDRINISNNLQKALTV [RPN8]
protein stability index (doa10∆): 3.17 ± 0.064
protein stability index (pdr5∆): 3.29 ± 0.062
protein stability index (san1∆): 3.38 ± 0.038
protein stability index (ubr1∆): 3.27 ± 0.046

DKQDGTAKPAFSFGAKP [YJL041W/NSP1]
protein stability index (doa10∆): 3.24 ± 0.087
protein stability index (pdr5∆): 3.29 ± 0.077
protein stability index (san1∆): 3.22 ± 0.057
protein stability index (ubr1∆): 3.35 ± 0.086

TLIVNTDVEKSDPAAKK [SRP21]
protein stability index (pdr5∆): 3.13 ± 0.3
protein stability index (ubr1∆): 3.7 ± 0.16

YALFLKALRRKIYINLA [SSN2]
protein stability index (doa10∆): 1.62 ± 0.092
protein stability index (pdr5∆): 1.31 ± 0.067
protein stability index (san1∆): 1.35 ± 0.12
protein stability index (ubr1∆): 1.47 ± 0.085

VMTVPGIDPTRIYTNSF [RPO21]
protein stability index (doa10∆): 2.44 ± 0.072
protein stability index (pdr5∆): 2.11 ± 0.067
protein stability index (san1∆): 2.59 ± 0.08
protein stability index (ubr1∆): 2.1 ± 0.056

TAAFTAMICEAKGLIEN [YJR042W/NUP85]
protein stability index (doa10∆): 2.62 ± 0.067
protein stability index (pdr5∆): 2.86 ± 0.06
protein stability index (san1∆): 2.72 ± 0.068
protein stability index (ubr1∆): 2.94 ± 0.052

MEYHISNTDETKGENYQ [FAS2]
protein stability index (doa10∆): 3.03 ± 0.12
protein stability index (pdr5∆): 3.22 ± 0.14
protein stability index (san1∆): 2.75 ± 0.2

GTILSSAGDDGKVRLWK [YGL100W/SEH1]
protein stability index (doa10∆): 3.27 ± 0.12
protein stability index (pdr5∆): 3.51 ± 0.1
protein stability index (san1∆): 3.49 ± 0.053
protein stability index (ubr1∆): 3.38 ± 0.059

LNATKISPSAPSKDSFT [YAR002W/NUP60]
protein stability index (doa10∆): 2.8 ± 0.068
protein stability index (pdr5∆): 3 ± 0.068
protein stability index (san1∆): 2.94 ± 0.052
protein stability index (ubr1∆): 3 ± 0.043

LYQLVDIRDSSCQGNVI [YMR129W/POM152]
protein stability index (doa10∆): 3.02 ± 0.1
protein stability index (pdr5∆): 3.12 ± 0.089
protein stability index (san1∆): 2.86 ± 0.058
protein stability index (ubr1∆): 2.96 ± 0.048

QQQQQQQQQQQHIYPSS [GAL11]
protein stability index (doa10∆): 2.691 ± 0.02
protein stability index (pdr5∆): 2.78 ± 0.02
protein stability index (san1∆): 2.693 ± 0.017
protein stability index (ubr1∆): 2.811 ± 0.018

LESTKAETDYVDPKRLA [DSN1]
protein stability index (doa10∆): 2.96 ± 0.063
protein stability index (pdr5∆): 3.19 ± 0.067
protein stability index (san1∆): 3.04 ± 0.053
protein stability index (ubr1∆): 3.26 ± 0.075

ELNYFVGCKNLERLTLV [GRR1]
protein stability index (doa10∆): 2.92 ± 0.11
protein stability index (pdr5∆): 2.83 ± 0.093
protein stability index (san1∆): 2.19 ± 0.094
protein stability index (ubr1∆): 3.05 ± 0.081

TGNTTSKSAFSFGTANT [YOR098C/NUP1]
protein stability index (doa10∆): 2.5 ± 0.064
protein stability index (pdr5∆): 2.72 ± 0.058
protein stability index (san1∆): 1.95 ± 0.076
protein stability index (ubr1∆): 2.75 ± 0.056

KKIVDDTIMENPEPNKK [IRR1]
protein stability index (doa10∆): 2.14 ± 0.071
protein stability index (pdr5∆): 2.81 ± 0.054
protein stability index (san1∆): 2.53 ± 0.084
protein stability index (ubr1∆): 2.59 ± 0.078

MSQGQSKKLDVTVEQLR [NSL1]
protein stability index (doa10∆): 2.64 ± 0.075
protein stability index (pdr5∆): 2.74 ± 0.075
protein stability index (san1∆): 2.7 ± 0.056
protein stability index (ubr1∆): 2.78 ± 0.075

NFRILKSFTNDKIPLNY [SRB5]
protein stability index (doa10∆): 2.94 ± 0.054
protein stability index (pdr5∆): 2.77 ± 0.057
protein stability index (san1∆): 2.84 ± 0.04
protein stability index (ubr1∆): 2.91 ± 0.036

GKIPTLKISLIQIFRAH [PRP8]
protein stability index (doa10∆): 1.72 ± 0.045
protein stability index (pdr5∆): 1.44 ± 0.044
protein stability index (san1∆): 1.33 ± 0.073
protein stability index (ubr1∆): 1.29 ± 0.041

CVVLGCERRSTLKLQDT [PRE6]
protein stability index (doa10∆): 1.78 ± 0.074
protein stability index (pdr5∆): 1.66 ± 0.073
protein stability index (san1∆): 1.91 ± 0.13
protein stability index (ubr1∆): 1.28 ± 0.062

DEVNDRSDISDSEGGLF [PCI8]
protein stability index (doa10∆): 3.33 ± 0.28
protein stability index (pdr5∆): 3.08 ± 0.16
protein stability index (san1∆): 3.46 ± 0.072
protein stability index (ubr1∆): 3.06 ± 0.12

DDSSSDNDSLTDLESLS [SIR4]
protein stability index (doa10∆): 3.15 ± 0.058
protein stability index (pdr5∆): 3.28 ± 0.043
protein stability index (san1∆): 3.09 ± 0.044
protein stability index (ubr1∆): 2.95 ± 0.042
